PMC5766207

Assays:
σJ = biological target: T1, σJ (Mycobacterium tuberculosis, UniProt L0TCG5 1-312); experiment: EMSA
T1 sequence: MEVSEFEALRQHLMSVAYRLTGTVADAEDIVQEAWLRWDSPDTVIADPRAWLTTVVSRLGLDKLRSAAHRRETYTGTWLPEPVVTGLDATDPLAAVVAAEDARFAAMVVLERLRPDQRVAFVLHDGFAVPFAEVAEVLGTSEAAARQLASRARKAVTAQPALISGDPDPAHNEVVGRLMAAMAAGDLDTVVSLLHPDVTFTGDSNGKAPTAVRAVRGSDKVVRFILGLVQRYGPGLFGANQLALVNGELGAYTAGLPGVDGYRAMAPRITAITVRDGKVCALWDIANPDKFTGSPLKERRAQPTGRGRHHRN

σJSnoaL_2 = biological target: T2, σJSnoaL_2 (Mycobacterium tuberculosis, UniProt L0TCG5 162-312); experiment: EMSA
T2 sequence: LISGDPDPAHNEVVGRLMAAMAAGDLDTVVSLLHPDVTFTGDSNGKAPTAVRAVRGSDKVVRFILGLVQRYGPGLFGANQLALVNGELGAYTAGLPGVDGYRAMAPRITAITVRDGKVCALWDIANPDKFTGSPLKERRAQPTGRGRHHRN

B1: wt-sigIp (dsDNA)
DNA 1: GCTGTCACATTCGGCGGGGCTGTCTCGTCCTTGA
DNA 2: TCAAGGACGAGACAGCCCCGCCGAATGTGACAGC
Kd (σJ): 4.96 ± 0.94 µM
binding result (σJSnoaL_2): no binding
